{
  "source": "paper PMC8717395",
  "about": "(JACS Au, 2021)",
  "molecules": {"B1": {"name": "Fdh (Ancylobacter novellus DSM 506) (protein)", "chain": "MAKILCVLYDDPVDGYPKTYARDDLPKIDHYPGGQTLPTPKAIDFTPGALLGSVSGELGLRKYLEANGHTFVVTSDKDGPDSVFERELVDADVVISQPFWPAYLTPERIAKAKNLKLALTAGIGSDHVDLQSAIDRGITVAEVTYCNSISVAEHVVMMILGLVRNYIPSHDWARKGGWNIADCVEHSYDLEGMTVGSVAAGRIGLAVLRRLAPFDVKLHYTDRHRLPEAVEKELGLVWHDTREDMYPHCDVVTLNVPLHPETEHMINDETLKLFKRGAYIVNTARGKLADRDAIVRAIESGQLAGYAGDVWFPQPAPKDHPWRTMKWEGMTPHISGTSLSAQARYAAGTREILECFFEGRPIRDEYLIVQGGALAGTGAHSYSKGNATGGSEEAAKFKKAG"}, "B2": {"name": "SthA (Escherichia coli K-12) (protein)", "chain": "PHSYDYDAIVIGSGPGGEGAAMGLVKQGARVAVIERYQNVGGGCTHWGTIPSKALRHAVSRIIEFNQNPLYSDHSRLLRSSFADILNHADNVINQQTRMRQGFYERNHCEILQGNARFVDEHTLALDCPDGSVETLTAEKFVIACGSRPYHPTDVDFTHPRIYDSDSILSMHHEPRHVLIYGAGVIGCEYASIFRGMDVKVDLINTRDRLLAFLDQEMSDSLSYHFWNSGVVIRHNEEYEKIEGCDDGVIMHLKSGKKLKADCLLYANGRTGNTDSLALQNIGLETDSRGQLKVNSMYQTAQPHVYAVGDVIGYPSLASAAYDQGRIAAQALVKGEATAHLIEDIPTGIYTIPEISSVGKTEQQLTAMKVPYEVGRAQFKHLARAQIVGMNVGTLKILFHRETKEILGIHCFGERAAEIIHIGQAIMEQKGGGNTIEYFVNTTFNYPTMAEAYRVAALNGLNRLF"}, "B3": {"name": "soluble pyridine nucleotide transhydrogenase SthA from E. coli (enzyme, E. coli K-12, UniProt P27306 1-466, looked up)", "chain": "MPHSYDYDAIVIGSGPGGEGAAMGLVKQGARVAVIERYQNVGGGCTHWGTIPSKALRHAVSRIIEFNQNPLYSDHSRLLRSSFADILNHADNVINQQTRMRQGFYERNHCEILQGNARFVDEHTLALDCPDGSVETLTAEKFVIACGSRPYHPTDVDFTHPRIYDSDSILSMHHEPRHVLIYGAGVIGCEYASIFRGMDVKVDLINTRDRLLAFLDQEMSDSLSYHFWNSGVVIRHNEEYEKIEGCDDGVIMHLKSGKKLKADCLLYANGRTGNTDSLALQNIGLETDSRGQLKVNSMYQTAQPHVYAVGDVIGYPSLASAAYDQGRIAAQALVKGEATAHLIEDIPTGIYTIPEISSVGKTEQQLTAMKVPYEVGRAQFKHLARAQIVGMNVGTLKILFHRETKEILGIHCFGERAAEIIHIGQAIMEQKGGGNTIEYFVNTTFNYPTMAEAYRVAALNGLNRLF"}},
  "key": {"[1]": {"molecular_target": "NAD+-dependent formate dehydrogenase from Starkeya novella (Starkeya novella)"}, "purified protein [2]": {"substrate": "O=CO", "assay": "purified protein", "settings": "2.0 mM NAD+, buffer B, 30 °C"}, "purified protein [3]": {"substrate": "NC(=O)c1ccc[n+]([C@@H]2O[C@H](COP(=O)([O-])OP(=O)(O)OC[C@H]3O[C@@H](n4cnc5c(N)ncnc54)[C@H](O)[C@@H]3O)[C@@H](O)[C@H]2O)c1", "assay": "purified protein", "settings": "20 mM formate, buffer B, 30 °C"}, "purified protein [4]": {"substrate": "NC(=S)c1ccc[n+]([C@@H]2O[C@H](COP(=O)(O)OP(=O)(O)OC[C@H]3O[C@@H](n4cnc5c(N)ncnc54)[C@H](OP(=O)(O)O)[C@@H]3O)[C@@H](O)[C@H]2O)c1", "assay": "purified protein", "settings": "15.0 mM NADH; buffer B; substrate inhibition term in fit"}, "[5]": {"molecular_target": "the molecule itself"}},
  "data": [
    {"molecule": "NAD+-dependent formate dehydrogenase from Starkeya novella (enzyme)", "values": [
      {"measurement": "stoichiometry N", "setting": "[1]", "value": 2}
    ]},
    {"molecule": "B1", "values": [
      {"measurement": "Km", "setting": "purified protein [2]", "value": 2.15, "unit": "mM"},
      {"measurement": "kcat", "setting": "purified protein [2]", "value": 0.87, "unit": "s⁻¹"},
      {"measurement": "Km", "setting": "purified protein [3]", "value": 0.11, "unit": "mM"},
      {"measurement": "kcat", "setting": "purified protein [3]", "value": 1.08, "unit": "s⁻¹"}
    ]},
    {"molecule": "B2", "values": [
      {"measurement": "Km", "setting": "purified protein [4]", "value": 0.03, "unit": "mM"},
      {"measurement": "kcat", "setting": "purified protein [4]", "value": 19.9, "unit": "s⁻¹"}
    ]},
    {"molecule": "B3", "values": [
      {"measurement": "stoichiometry N", "setting": "[5]", "value": 8}
    ]}
  ]
}
